Measurements taken from ChEMBL document CHEMBL1146311, “Carbonic anhydrase activators: L-Adrenaline plugs the active site entrance of isozyme II, activating better isoforms I, IV, VA, VII, and XIV” (Bioorg Med Chem Lett, 2007).

What was measured:
Conditions in all cases: Homo sapiens; 10 uM
[1] = substrate: NCCc1c[nH]cn1
Description: (§1) Activity of human recombinant CA5A at 10 uM by stopped-flow technique

[2] = substrate: CNC[C@H](O)c1ccc(O)c(O)c1
Description: as §1

[3] = substrate: NCCc1c[nH]cn1; remark: listed apart in the source
Description: (§2) Activity of human recombinant CA7 at 10 uM by stopped-flow technique

[4] = substrate: CNC[C@H](O)c1ccc(O)c(O)c1; remark: listed apart in the source
Description: as §2

[5] = substrate: NCCc1c[nH]cn1; remark: listed apart in the source
Description: (§3) Activity of human recombinant CA4 at 10 uM by stopped-flow technique

[6] = substrate: CNC[C@H](O)c1ccc(O)c(O)c1; remark: listed apart in the source
Description: as §3

[7] = substrate: NCCc1c[nH]cn1; remark: listed apart in the source
Description: (§4) Activity of human recombinant CA14 at 10 uM by stopped-flow technique

[8] = substrate: CNC[C@H](O)c1ccc(O)c(O)c1; remark: listed apart in the source
Description: as §4

B1: Carbonic anhydrase 5A, mitochondrial (Homo sapiens), P35218 (protein)
chain: MLGRNTWKTSAFSFLVEQMWAPLWSRSMRPGRWCSQRSCAWQTSNNTLHPLWTVPVSVPGGTRQSPINIQWRDSVYDPQLKPLRVSYEAASCLYIWNTGYLFQVEFDDATEASGISGGPLENHYRLKQFHFHWGAVNEGGSEHTVDGHAYPAELHLVHWNSVKYQNYKEAVVGENGLAVIGVFLKLGAHHQTLQRLVDILPEIKHKDARAAMRPFDPSTLLPTCWDYWTYAGSLTTPPLTESVTWIIQKEPVEVAPSQLSAFRTLLFSALGEEEKMMVNNYRPLQPLMNRKVWASFQATNEGTRS
Question: B1 was tested. Which kcat [1] did it give?
Answer: The kcat was 8.6 10^5/s.

Question: What about the kcat [2] of the same protein?
Answer: The kcat was 3.9 10^5/s.

B2: Carbonic anhydrase 7 (Homo sapiens), P43166 (protein)
chain: MTGHHGWGYGQDDGPSHWHKLYPIAQGDRQSPINIISSQAVYSPSLQPLELSYEACMSLSITNNGHSVQVDFNDSDDRTVVTGGPLEGPYRLKQFHFHWGKKHDVGSEHTVDGKSFPSELHLVHWNAKKYSTFGEAASAPDGLAVVGVFLETGDEHPSMNRLTDALYMVRFKGTKAQFSCFNPKCLLPASRHYWTYPGSLTTPPLSESVTWIVLREPICISERQMGKFRSLLFTSEDDERIHMVNNFRPPQPLKGRVVKASFRA
Question: Which kcat [3] does the source give for B2 here?
Answer: The kcat was 15.2 10^5/s.

Question: What about the kcat [4] of the same protein?
Answer: Its kcat is 10.4 10^5/s.

B3: Carbonic anhydrase 4 (Homo sapiens), P22748 (protein)
chain: MRMLLALLALSAARPSASAESHWCYEVQAESSNYPCLVPVKWGGNCQKDRQSPINIVTTKAKVDKKLGRFFFSGYDKKQTWTVQNNGHSVMMLLENKASISGGGLPAPYQAKQLHLHWSDLPYKGSEHSLDGEHFAMEMHIVHEKEKGTSRNVKEAQDPEDEIAVLAFLVEAGTQVNEGFQPLVEALSNIPKPEMSTTMAESSLLDLLPKEEKLRHYFRYLGSLTTPTCDEKVVWTVFREPIQLHREQILAFSQKLYYDKEQTVSMKDNVRPLQQLGQRTVIKSGAPGRPLPWALPALLGPMLACLLAGFLR
Question: What does the source list for B3?
Answer: kcat [5]: 3.5 10^6/s; kcat [6]: 2.9 10^6/s

B4: Carbonic anhydrase 14 (Homo sapiens), Q9ULX7 (protein)
chain: MLFSALLLEVIWILAADGGQHWTYEGPHGQDHWPASYPECGNNAQSPIDIQTDSVTFDPDLPALQPHGYDQPGTEPLDLHNNGHTVQLSLPSTLYLGGLPRKYVAAQLHLHWGQKGSPGGSEHQINSEATFAELHIVHYDSDSYDSLSEAAERPQGLAVLGILIEVGETKNIAYEHILSHLHEVRHKDQKTSVPPFNLRELLPKQLGQYFRYNGSLTTPPCYQSVLWTVFYRRSQISMEQLEKLQGTLFSTEEEPSKLLVQNYRALQPLNQRMVFASFIQAGSSYTTGEMLSLGVGILVGCLCLLLAVYFIARKIRKKRLENRKSVVFTSAQATTEA
Question: With B4 as the protein, how does the kcat [7] read?
Answer: Its kcat is 10 10^5/s.

Question: And the kcat [8]?
Answer: Its kcat is 4.5 10^5/s.
